Measurements taken from the supplement of paper PMC10567573.
± gives the standard deviation.

Test: protein stability index of a GFP-peptide fusion (GPS, HEK-293T) (PSI 1-6); higher = more stable
Conditions: c terminus: a fixed tail appended
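Also: 24-mer peptide tiles fused after GFP, lentivirally expressed, FACS-sorted into six equal bins by GFP/DsRed ratio, decoded by Illumina sequencing, PSI is the read-weighted mean bin number.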

| Sequence | protein stability index (treatment: DMSO) | protein stability index (treatment: MLN4924 1 uM, 8 h) |
| --- | --- | --- |
| WKEGRPRVEESGSKKEGKRQGPKE [PBXIP1] | 5.28 ± 0.46 | 5.24 ± 0.12 |
| TEQFTAMRDLYMKNGQGFALVYSI [RAP1B] | 3.25 ± 1 | 2.96 ± 0.5 |
| YTDYVATRWYRAPELLVGDTQYGS [CDKL4] | 2.56 ± 0.7 | 2.38 ± 0.34 |
| GRLGKQCRERWHNHLNPEVKKSCW [MYBL2] | 2.42 ± 0.17 | 2.99 ± 0.41 |
| LKFDMKYMNFRVKACNKAVAGEFS [FSD1] | 2.34 ± 0.26 | 2.17 ± 0.2 |
| ALIDRPAPYFERSSSKRYTMSRSL [EPB41L3] | 2.8 ± 0.31 | 3.12 ± 0.58 |
| RVRFGQQKRYQDWFQRQYLSTPDS [INTS3] | 2.85 ± 0.23 | 3.07 ± 0.14 |
| NSKPQDLTDAYGPPSNFLEIDIFN [SNX12] | 3.63 ± 0.18 | 3.83 ± 0.24 |
| DHMVRMHLYPADFRFDKPKKSRSP [ZNF511] | 3.42 ± 0.38 | 3.77 ± 0.43 |
| GSARSHASSRASENQSPSSSNYFS [ZBTB22] | 4.28 ± 0.22 | 4.74 ± 0.2 |
| EPSNKTIHAELSKLVKKHAAQRST [FKBP8] | 4.49 ± 0.21 | 4.47 ± 0.3 |
| KKDKDISKEKDTQNQNITLDCEGT [KMT2E] | 5.23 ± 0.26 | 5.49 ± 0.28 |
| VQPMDRLPYQHFSAHFTSGPLVPR [TBX5] | 2.88 ± 0.27 | 2.88 ± 0.33 |
| VCSVRGGEGRSRGSANDYKDTLGK [KRT71] | 4.68 ± 0.32 | 4.79 ± 0.18 |
| DSEQNGQVTCSILAYLPFKLEKSI [PCDHGA10] | 2.16 ± 0.24 | 2.27 ± 0.41 |
| EASSSPPEGSQDRNTSWGVVQEPP [TLE6] | 5.12 ± 0.28 | 5.2 ± 0.18 |
| LLSQKKTISFLGCAIQMFSFLFLG [OR10K2] | 2.5 ± 0.69 | 2.41 ± 0.25 |
| VSDITDLELLDKIERSKIVSTMRC [PPEF2] | 3.69 ± 0.27 | 3.52 ± 0.23 |
| LNPGFQDATLSLKQTILDKEEKQR [TTC32] | 4.94 ± 0.15 | 4.98 ± 0.17 |
| TLSRPPPAQVPREVLKVQTHLENP [TFE3] | 4.3 ± 0.11 | 4.41 ± 0.19 |
| LYPEGIGARQQQVTTYLHKDYNNL [POMT2] | 3.25 ± 0.15 | 3.35 ± 0.26 |
| KEDALLYQSKGYNDDYYEESYFTT [EMD] | 4.2 ± 0.2 | 4.21 ± 0.18 |
| SFGGEWSAPDTMKRYSMYLTPKGG [TRIM29] | 3.09 ± 0.51 | 3.09 ± 0.48 |

| Sequence | protein stability index (treatment: DMSO) | protein stability index (treatment: MLN4924 1 uM, 8 h) |
| --- | --- | --- |
| QLCGKTFLTLEKFTIHNYSHSRER [PLAGL1] | 2.15 ± 0.57 | 2.27 ± 0.27 |
| LLCLRAVTHREGAPPLPGAESFPG [PLEKHN1] | 3.08 ± 0.23 | 3.11 ± 0.067 |
| ISEHEHFTDFNATSALFWEQHDLV [CLPTM1] | 3.33 ± 0.27 | 3.38 ± 0.35 |
| AFSNRSKQLRRQMWWRGCKIKAIM [VAMP4] | 2.35 ± 0.082 | 2.44 ± 0.27 |
| TALVTVSSEEFEDKWFRKIKDHFC [C8orf76] | 2.33 ± 0.16 | 2.54 ± 0.25 |
| AAFEEFDTDRDGYISHRELGDCMR [CABP4] | 4.25 ± 0.17 | 4.3 ± 0.36 |
| HECKLTQEILELIDREVDLMMRGV [IQUB] | 2.88 ± 0.2 | 3.17 ± 0.67 |
| LLEPEVADGGGAPPQGGCGGGGCD [KCNA3] | 5.31 ± 0.22 | 5.35 ± 0.11 |
| VSEWASKAKANGITMYAVGVGKAI [MATN2] | 2.33 ± 0.3 | 2.36 ± 0.2 |
| FLRGPSGPRFGPRNDKIKHVQNQV [VAMP4] | 2.93 ± 0.27 | 3.39 ± 0.31 |
| SLCSLLESQSTSLRGSYNSLHDGS [LURAP1L] | 2.8 ± 0.11 | 2.87 ± 0.41 |
| ALAGYTGSGPIQLWQFLLELLTDK [ETS1] | 2.35 ± 0.13 | 2.48 ± 0.31 |
| LEGYRDNAYKDLAWKHGNIHLSAP [PCMTD1] | 2.99 ± 0.35 | 2.94 ± 0.21 |
| TVTSLKTKVGGTNPNGGSFEEVLS [TPD52L1] | 3.811 ± 0.036 | 3.82 ± 0.18 |
| RQVKHYRIFRLPNNWYYISPRLTF [SLA] | 2.43 ± 0.52 | 2.14 ± 0.069 |
| LEAIRKQDLVELYLTNCEKLSAKS [ZER1] | 3.06 ± 0.21 | 3.11 ± 0.36 |
| RKKSADVLALADEAGYYFFNGNYK [ADAMTSL2] | 3 ± 0.22 | 3.05 ± 0.33 |
| PAGCMYIHGGVVNIHENKRTGSLF [KLHDC10] | 2.52 ± 0.18 | 2.45 ± 0.26 |
| FLLSQQTDLPECEQSSARQKASLL [TCF25] | 3.78 ± 0.52 | 3.83 ± 0.12 |
| LPAAEFHGLWDSLVYDVEVKSHLL [TRIP13] | 2.43 ± 0.22 | 2.42 ± 0.2 |
| APAFRLSLKAKVSDNMSHLMVDFA [FSD1] | 2.28 ± 0.1 | 2.25 ± 0.12 |
| GLGELGAALLQLVRRLQALRLERE [ESRRA] | 2.66 ± 0.21 | 2.54 ± 0.14 |
| TCADRDNLTRRFSDLGFEVKCFND [CASP6] | 2.96 ± 0.32 | 3.24 ± 0.21 |

| Sequence | protein stability index (treatment: DMSO) | protein stability index (treatment: MLN4924 1 uM, 8 h) |
| --- | --- | --- |
| STTEWNDETLYQEFNGLKKMNPKL [CHIT1] | 4.2 ± 0.2 | 4.54 ± 0.2 |
| SLGGIRACTLTVFPPEETTPSPSR [KLHL13] | 3.63 ± 0.21 | 3.77 ± 0.17 |
| SRIAKGGVDHTKMSLHGASGGHER [BTBD10] | 4.5 ± 0.19 | 4.43 ± 0.14 |
| QNKIRACGERLSLGLSRAQPVQSK [PDLIM7] | 3.92 ± 0.28 | 3.85 ± 0.2 |
| FALLADKAAQQGKQEENDVVEKLN [SNX8] | 5.38 ± 0.13 | 5.33 ± 0.15 |
| PSATRAKPGPQDTVERPFYDLWAS [NOP53] | 3.08 ± 0.37 | 3.24 ± 0.37 |
| STFSSGPSDKMKWCLRVNPKGLDD [SPOPL] | 2.73 ± 0.5 | 3 ± 0.47 |
| AQNACSEHGATLAVIDSEKDMNFL [CD69] | 4.62 ± 0.29 | 4.78 ± 0.27 |
| DLQLTVGGAQASGTLIGVGQSVTA [MFSD9] | 3.52 ± 0.34 | 3.6 ± 0.24 |
| VRHLEEENRGIVVLGINRAYGKNS [AUH] | 3.15 ± 0.36 | 3.31 ± 0.22 |
| VDNHFNLLTTSPVFPHYIEKPLGR [TRIM43] | 3.05 ± 0.4 | 2.96 ± 0.7 |
| HVAVEHQLPPASRCVLVFEQVRFL [SOAT2] | 2.66 ± 0.86 | 2.36 ± 0.61 |
| VRDSDDNSPLHIAALNNHPDIMNL [FEM1C] | 4.26 ± 0.24 | 4.42 ± 0.2 |
| EEVDEDGSGTIDFEEFLVMMVRQM [TNNC2] | 3.52 ± 0.15 | 3.79 ± 0.44 |
| YSLVTHIPAGARDIQIVERKKSAD [ADAMTSL2] | 4.37 ± 0.22 | 4.67 ± 0.41 |
| FGPGQTLLSSVHVLDLEARGYIKP [ALKBH7] | 2.43 ± 0.24 | 2.67 ± 0.3 |
| EKEKAEIEAKEACDWLRATGFPQY [DLC1] | 4.02 ± 0.24 | 4.09 ± 0.24 |
| RGTQYSSLDSLDGLSLTDESDSCV [PSD2] | 5.26 ± 0.22 | 5.3 ± 0.14 |
| EQDMERRKADFKAGKALVISGREV [ZC3H15] | 4.8 ± 0.3 | 4.89 ± 0.18 |
| YEMTDLTNNKVYAAKIIPHSRVAK [PLK2] | 3.78 ± 0.092 | 4.05 ± 0.28 |
| SYLLKSGADKEILTTKGEMPVQLT [ANKRD40] | 3.46 ± 0.38 | 3.55 ± 0.19 |
| HQSLSLASSPKGTIENILDNDPRD [CDC25A] | 5.3 ± 0.2 | 5.22 ± 0.18 |
| EALQNFFSLACSLMGPSRMSLFSL [M1AP] | 2.89 ± 0.75 | 3.09 ± 0.74 |

| Sequence | protein stability index (treatment: DMSO) | protein stability index (treatment: MLN4924 1 uM, 8 h) |
| --- | --- | --- |
| IQQALTMFPGVLLPLLESCSVRPD [TCF25] | 2.4 ± 0.5 | 3.18 ± 0.58 |
| NAPKFQAENLDVKINENVAAGMRF [PCDHGA10] | 3.77 ± 0.61 | 3.86 ± 0.45 |
| PKKSAPSAVARSNSWMGSQGPMSQ [RBMY1A1] | 4.08 ± 0.13 | 4.28 ± 0.2 |
| HQDLKYISPETMVALLTGKFSNIV [CDC25B] | 2.23 ± 0.41 | 2.55 ± 0.54 |
| INYCALNKPGCEHECVNMEESYYC [MATN2] | 3.26 ± 0.7 | 3.28 ± 0.64 |
| FIGLEVVAQLFNCMVGLLLIALLT [ATL3] | 3.08 ± 0.3 | 3.39 ± 0.28 |
| CLVFELLSYNLYDLLRNTHFRGVS [DYRK1B] | 2.95 ± 0.3 | 3.3 ± 0.16 |
| TDLKTLCCEFLEGCIAAENCIGIR [GAN] | 2.35 ± 0.4 | 2.48 ± 0.2 |
| AVEDGLQQFKQYSRHVTTRAALTY [M1AP] | 3.14 ± 0.42 | 3.1 ± 0.23 |
| EEEDEILPRKDYESLDYDRCINDP [CLCN6] | 5.52 ± 0.17 | 5.48 ± 0.29 |
| VPAPQPPVTKPLFPSAGQAQAAVQ [ZNF207] | 4.39 ± 0.41 | 4.59 ± 0.18 |
| SSEVDELIHKADEVTLSEAGSTAG [PALM] | 5.65 ± 0.15 | 5.58 ± 0.16 |
| GHHQGMPGYLPGAMPPYGQGPPMV [ZNF207] | 2.86 ± 0.43 | 2.84 ± 0.2 |
| SFLRDHSYATEADIISTVEFNHTG [PPP2R2B] | 3.65 ± 0.15 | 3.58 ± 0.19 |
| IMDTVGNIWVCYASYVVFRIIYML [SLC19A2] | 2.83 ± 0.41 | 3.12 ± 0.53 |
| PTVIRNVGLGTCSMFSRVGGIIAP [SLC22A15] | 2.34 ± 0.3 | 2.23 ± 0.47 |
| MAAESLPFSFGTLSSWELEAWYED [DDIT3] | 3.21 ± 0.074 | 3.45 ± 0.23 |
| GGDAGHAPFPPPPAADGARAPRSP [C6orf223] | 5.39 ± 0.28 | 5.5 ± 0.27 |
| IPPMAQPGLPPVPGAPGMPPGIPP [ZNF207] | 4.29 ± 0.24 | 4.4 ± 0.35 |
| LQRLDFSVRGYMMSKQRERQLRRR [RETREG3] | 3.88 ± 0.14 | 3.92 ± 0.28 |
